From patent US20080171347A1

Biological target: mouse synaptosomes (synaptosome preparation carrying the BoNT/A acceptor complex)

**Q.** “active botulinum neurotoxin type A (BoNT/A) (from UniProt P0DPI1 2-1296)” was tested. Which percent inhibition (maximum at plateau) did it give?
**A.** 78%
